Measured values from patent publication US20150376265A1 (Genentech, published 2015).

What was measured:
[1] = biological target: T1, Complex I with gH P171H, on virions of HB1 - mutant virus 1 (HCMV, UniProt P12824 24-743; P16832 31-278; P16837 28-171; F5HCP3 26-214; F5HET4 19-129); experiment: cell-based or functional assay
T1 chain 1: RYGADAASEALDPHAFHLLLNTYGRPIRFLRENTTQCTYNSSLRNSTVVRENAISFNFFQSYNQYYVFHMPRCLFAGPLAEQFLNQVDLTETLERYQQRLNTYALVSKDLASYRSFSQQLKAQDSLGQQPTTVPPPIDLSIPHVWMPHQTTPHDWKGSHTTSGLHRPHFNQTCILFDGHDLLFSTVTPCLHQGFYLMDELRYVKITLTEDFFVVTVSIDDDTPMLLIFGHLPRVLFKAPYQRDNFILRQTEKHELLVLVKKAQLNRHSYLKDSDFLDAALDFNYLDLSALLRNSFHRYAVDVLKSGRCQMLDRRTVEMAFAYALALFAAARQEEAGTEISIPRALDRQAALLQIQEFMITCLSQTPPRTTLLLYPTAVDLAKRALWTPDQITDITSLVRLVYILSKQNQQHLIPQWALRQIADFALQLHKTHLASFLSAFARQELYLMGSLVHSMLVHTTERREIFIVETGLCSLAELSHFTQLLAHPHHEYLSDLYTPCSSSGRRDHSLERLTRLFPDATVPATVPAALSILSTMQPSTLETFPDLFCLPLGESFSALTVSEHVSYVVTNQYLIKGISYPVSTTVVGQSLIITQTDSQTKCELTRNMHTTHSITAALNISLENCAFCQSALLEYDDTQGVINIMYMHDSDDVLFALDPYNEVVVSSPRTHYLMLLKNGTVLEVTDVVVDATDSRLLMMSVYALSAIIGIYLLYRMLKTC
T1 chain 2: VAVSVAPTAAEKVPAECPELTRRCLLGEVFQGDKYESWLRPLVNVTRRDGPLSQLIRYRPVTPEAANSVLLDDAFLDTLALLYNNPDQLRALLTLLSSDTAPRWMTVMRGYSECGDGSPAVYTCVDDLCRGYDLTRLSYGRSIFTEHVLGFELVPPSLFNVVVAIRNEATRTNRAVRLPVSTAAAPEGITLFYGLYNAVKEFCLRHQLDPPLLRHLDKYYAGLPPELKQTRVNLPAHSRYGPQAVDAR
T1 chain 3: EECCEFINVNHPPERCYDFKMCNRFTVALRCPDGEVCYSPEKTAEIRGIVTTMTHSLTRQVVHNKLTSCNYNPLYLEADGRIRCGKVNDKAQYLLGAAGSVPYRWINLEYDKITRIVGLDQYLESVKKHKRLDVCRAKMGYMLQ
T1 chain 4: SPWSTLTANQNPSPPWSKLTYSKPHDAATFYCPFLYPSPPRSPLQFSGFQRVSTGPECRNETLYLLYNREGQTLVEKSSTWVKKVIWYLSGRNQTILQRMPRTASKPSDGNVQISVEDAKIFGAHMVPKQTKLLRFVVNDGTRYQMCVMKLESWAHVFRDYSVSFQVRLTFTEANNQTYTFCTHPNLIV
T1 chain 5: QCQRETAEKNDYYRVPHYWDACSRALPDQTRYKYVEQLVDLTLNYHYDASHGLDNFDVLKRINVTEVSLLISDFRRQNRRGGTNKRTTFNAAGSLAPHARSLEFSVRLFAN

[2] = biological target: T2, Complex I with gH D446N, on virions of HB1 - mutant virus 4 (HCMV, UniProt P12824 24-743; P16832 31-278; P16837 28-171; F5HCP3 26-214; F5HET4 19-129); experiment: cell-based or functional assay
T2 chain 1: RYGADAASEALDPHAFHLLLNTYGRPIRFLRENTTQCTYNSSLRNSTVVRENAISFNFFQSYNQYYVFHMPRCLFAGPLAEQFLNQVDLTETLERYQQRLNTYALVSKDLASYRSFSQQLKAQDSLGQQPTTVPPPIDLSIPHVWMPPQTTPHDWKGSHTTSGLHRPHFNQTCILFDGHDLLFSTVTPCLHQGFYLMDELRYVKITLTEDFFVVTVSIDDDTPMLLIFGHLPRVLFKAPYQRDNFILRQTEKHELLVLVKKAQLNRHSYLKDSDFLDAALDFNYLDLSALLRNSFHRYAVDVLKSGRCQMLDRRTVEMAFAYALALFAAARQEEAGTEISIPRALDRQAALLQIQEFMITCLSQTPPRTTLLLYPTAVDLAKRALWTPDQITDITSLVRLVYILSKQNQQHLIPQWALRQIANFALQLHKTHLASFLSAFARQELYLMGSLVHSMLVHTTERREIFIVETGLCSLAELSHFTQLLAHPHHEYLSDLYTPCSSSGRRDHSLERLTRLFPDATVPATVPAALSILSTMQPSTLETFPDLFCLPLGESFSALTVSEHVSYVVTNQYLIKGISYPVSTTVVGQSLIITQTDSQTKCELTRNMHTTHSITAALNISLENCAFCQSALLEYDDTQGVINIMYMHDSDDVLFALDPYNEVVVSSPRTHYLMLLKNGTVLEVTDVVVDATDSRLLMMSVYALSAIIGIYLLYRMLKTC
T2 chain 2: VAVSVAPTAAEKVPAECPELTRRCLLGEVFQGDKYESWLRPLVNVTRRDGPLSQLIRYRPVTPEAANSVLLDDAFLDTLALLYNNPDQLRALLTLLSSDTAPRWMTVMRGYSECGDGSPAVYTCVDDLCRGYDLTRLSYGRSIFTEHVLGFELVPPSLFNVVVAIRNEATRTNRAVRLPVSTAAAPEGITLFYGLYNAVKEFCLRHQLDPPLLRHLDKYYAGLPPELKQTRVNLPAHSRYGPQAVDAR
T2 chain 3: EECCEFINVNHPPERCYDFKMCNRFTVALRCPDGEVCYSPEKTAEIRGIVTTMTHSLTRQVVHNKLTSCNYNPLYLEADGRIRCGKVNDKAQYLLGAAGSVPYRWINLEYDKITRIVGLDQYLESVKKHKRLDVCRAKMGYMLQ
T2 chain 4: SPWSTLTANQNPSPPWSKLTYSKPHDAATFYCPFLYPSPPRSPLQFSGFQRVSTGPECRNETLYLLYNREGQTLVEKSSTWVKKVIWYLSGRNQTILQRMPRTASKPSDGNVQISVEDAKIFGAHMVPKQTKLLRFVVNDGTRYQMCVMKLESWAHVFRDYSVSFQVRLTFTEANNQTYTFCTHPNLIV
T2 chain 5: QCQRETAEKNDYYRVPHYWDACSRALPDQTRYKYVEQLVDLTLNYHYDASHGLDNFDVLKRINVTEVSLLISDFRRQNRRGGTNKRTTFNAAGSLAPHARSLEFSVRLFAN

[3] = biological target: T3, gH/gL/gO on the surface of cells (HCMV, UniProt P12824 24-743; P16832 31-278; F5HGP1 32-472); experiment: FACS on transfected cells, data not shown
T3 construct: also called Complex II; cells expressing gH/gL/gO
T3 sequence (F5HGP1 32-472 limits assumed, one chain of several): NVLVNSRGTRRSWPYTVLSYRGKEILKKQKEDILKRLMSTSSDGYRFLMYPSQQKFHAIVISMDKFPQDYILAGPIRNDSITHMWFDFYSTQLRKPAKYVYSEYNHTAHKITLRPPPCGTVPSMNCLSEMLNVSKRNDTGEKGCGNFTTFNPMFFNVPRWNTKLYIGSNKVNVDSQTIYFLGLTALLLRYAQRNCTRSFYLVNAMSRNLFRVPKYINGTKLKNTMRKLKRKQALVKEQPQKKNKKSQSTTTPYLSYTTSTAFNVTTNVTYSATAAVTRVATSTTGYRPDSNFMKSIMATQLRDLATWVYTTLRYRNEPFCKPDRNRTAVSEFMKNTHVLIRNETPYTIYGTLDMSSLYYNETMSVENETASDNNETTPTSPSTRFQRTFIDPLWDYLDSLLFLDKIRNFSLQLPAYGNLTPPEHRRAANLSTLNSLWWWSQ

B1: hu8G8 (lambda4 8G8 graft and hu8G8.VH1) (antibody, V domains shown)
VH: EVQLVQSGAEVKKPGASVKVSCKASGYTFTNYGMNWVRQAPGQGLEWIGWINTYTGEPTYADDFKGRVTITRDTSTSTAYLELSSLRSEDTAVYYCARSWYYVSNYWYFDVWGQGTLVTVSS
VL: SVLTQSPSASASLGASVKLTCTLSSQHSTYTIEWYQQQPGKGPRYLMKLKKDGSHSTGDGIPDRFSGSSSGADRYLTISNLQSEDEADYYCGVGDTIKEQFVYVFGGGTKLTVLG
notes: also called hu8G8 with VH1; Humanized 8G8 with VH1
- hu8G8 EC50, neutralisation of HB1 - mutant virus 1, Data Set 1 [1]: 10 ng/mL
- hu8G8 EC50, neutralisation of HB1 - mutant virus 1, Data Set 2 [1]: 0.6 ng/mL
- hu8G8 EC50, neutralisation of HB1 - mutant virus 4, Data Set 2 [2]: 0.1 ng/mL
- binding result [3]: no binding
